# Earlier results as cited in patent US7662384B2, “Use of anti-α5β1 antibodies to inhibit cancer cell proliferation” (Facet Biotech Corporation, priority 2004, dated 2010).
# Like-named read-outs stand apart in the source and are kept apart here.
# What was measured:
# angiogenesis [1] = conditions: monkey eye model; cited from earlier work
# angiogenesis [2] = conditions: rabbit eye model; cited from earlier work
molecule,measurement,setting,value
"F200: Fab fragment derived from M200 (antibody, chains of the INN, looked up, V domains shown, Fab, Fab fragment derived from M200) VH: QVQLKESGPGLVAPSQSLSITCTISGFSLTDYGVHWVRQPPGKGLEWLVVIWSDGSSTYNSALKSRMTIRKDNSKSQVFLIMNSLQTDDSAMYYCARHGTYYGMTTTGDALDYWGQGTSVTVSS VL: QIVLTQSPAIMSASLGERVTMTCTASSSVSSNYLHWYQQKPGSAPNLWIYSTSNLASGVPARFSGSGSGTSYSLTISSMEAEDAATYYCHQYLRSPPTFGGGTKLEIK",in vivo anti-angiogenic efficacy,angiogenesis [1],in vivo anti-angiogenic efficacy
same,in vivo anti-angiogenic efficacy,angiogenesis [2],in vivo anti-angiogenic efficacy
